B1: NMC-103: mouse monoclonal antibody, IgG1 isotype, binds NMC-P1 (SEQ ID NO:1); VH SEQ ID NO:36, VL SEQ ID NO:37 (antibody, V domains shown)
VH: EVQLQESGGGLVQPGGSLRLSCTTSGFTFTHYYMSWVRQPPGKALEWLGFIRNKAKGYTAEYSASVKGRFTISRDNSQSILYLQMNTLRPEDSATYYCARDIGDNWGQGTLVTVSS
VL: DIVMTQAAFSNPVTLGTSASISCRSSKNLLHSNGITYLYWYLQRPGQSPQLLISRVSNLASGVPNRFSGSESGTDFTLRISRVEAEDVGVYFCAQLLELPYTFGGGTKLEIK
modifications: mAb NMC-103 Heavy Chain Variable Region; mAb NMC-103 Light Chain Variable Region
B2: NMC-204: mouse monoclonal antibody, IgG3 isotype, binds NMC-P2 (SEQ ID NO:2); VH SEQ ID NO:38, VL SEQ ID NO:39 (antibody, V domains shown)
VH: EVQLQESGSVLVRPGASVKLSCKASGDTLSGSWMHWAMQRPGQGLEWIGEIHLNRGTTNYNEKFKGKATVTVDTSSSTAYVDLSSLTSEDSAVYYCARSPGFAYWGQGTLVTVSA
VL: GIVMTQAAPSVPVTPGESVSISCRSSKSLLHSNGNSYLYWFLQRPGQSPQLLIYRMSNLASGVPDRFSGSGSGTAFTLRITRVEAEDVGVYYCMQHLEYPFTFGSGTKLEIK
modifications: mAb NMC-204 Heavy Chain Variable Region; mAb NMC-204 Light Chain Variable Region

Assays:
[1] = molecular target: T1, recombinant full-length HDM2 protein (GST tagged) (Homo sapiens, UniProt Q00987); assay: Western blot (immunoblot); format: binding; details: 1 μg/well protein; band at approximately 83 kD; FIG. 2
T1 construct: reacted with the recombinant full-length HDM2 protein; purchased Abcam ab188727
Method: Western Blot: As for immunoblots, 1 μg/well of recombinant FIDM2 protein (GST tagged, Abeam, Cat. No. ab188727) was separated on 8-16% sodium dodecyl sulfate (SDS) polyacrylamide gel and proteins were then transferred to polyvinylidene difluoride (PVDF) membrane. The membrane was blocked with 5% milk followed by incubation with monoclonal antibody NMC-103, NMC-204 or NMC-303 at 1 μg/πι ? in 1% milk in PBS for 2 hours. The membrane was then washed×3 times (10 minutes each) and incubated for 1 hour with corresponding HRP-conjugated secondary antibody (Goat anti-Mouse IgG (H&L), F(ab′)2 Frag Cross-adsorbed HRP (HRP-GaM F(ab′)2), ThermoFisher, Cat. No. A24524) diluted 1:5000 in 1% BSA-PBS. The membrane was then washed×3 times and incubated with Pierce ECL Plus Western Blotting Substrate (ThermoFisher, Cat. No. #32132) for 10 min before developing on a LICOR Scanner.

[2] = system: normal human peripheral blood mononuclear cells (PBMCs); assay: Cell-ELISA, intact normal cells; format: binding; details: freshly isolated PBMCs; FIG. 6
Method: Cell-ELISA Methodology: 8,000-10,000 cells/well of a 96-well microplate were grown overnight. The next day, unbound cells were washed off with sterile 1× PBS. The cells in each well were fixed with freshly prepared 4% buffered paraformaldehyde (pH 7.2) for 1 hour followed by 3 washes with 1× PBS. The wells were then blocked with 5% BSA in PBS (100 ? /well) for 2 hours at room temperature. Microplate wells were then washed 5 times with 300 ? of ice cold 1× PBS. MAbs NMC-103, NMC-204 or NMC-303 at 1 μg/mL in 1% BSA/PBS were then incubated with various cancer or normal untransformed cells for 2 hours at room temperature. Wells were then washed with 300 ? of ice-cold 1× PBS for 5 times and corresponding secondary antibody HRP-GaM F(ab′)2 diluted 1:2500 or 1:5000 in PBS with 1% BSA were added at 100 ? /well for 1 hour at room temperature followed by washing 5 times with 300 ? of ice-cold 1× PBS. TMB Substrate Solution (1-StepTM Ultra TMB-ELISA, ThermoFisher, Cat. No. 34028) was then added at 50 ? ? to each microplate well and incubated at room temperature for 30 minutes. The reaction was stopped by addition of 50 μL, of stop solution (ThermoFisher, Cat. No. SSO4) to each well and absorbance of each well was measured at OD450 nm. The absorbance value of each experimental well was corrected for the absorbance value obtained from wells treated with isotype-identical mAbs included in each experiment. The results are thus expressed as “relative binding”.

[3] = system: Human pancreatic cancer MIAPaCa-2 cells; assay: In vitro growth inhibition (cell count); format: cell-based; details: overnight
Method: Methodology used: Human pancreatic cancer MIAPaCa-2 cells (8,000 cells/well) were pre-incubated with mAb NMC-103, NMC-204 and anti-Cytochrome-C antibody (Santa Cruz, Cat No. sc-13156) at 1, 5 and 10 μg/mL, respectively. Cells in the presence of one of the antibodies at various concentrations were then plated in triplicate in 96-well cell culture plates overnight. The next day, each plate well was analyzed morphologically and a picture was taken from each well using EVOS FL microscope. Cell count was also performed and the number of living cells was graphed as % of control.

[4] = system: mouse Lewis Lung LL/2 cancer cells; assay: Flow cytometry, EDTA versus trypsin, intact versus permeabilized cells; format: binding; details: antibody 5 μg/ml, FIG. 11
Method: Flow Cytometry Methodology: Cells that had been allowed to grow to about 80% confluency in 25 cm^2 tissue culture flasks were released with either EDTA (10 mmols; pH7.2; 5 min, 37° C.) or Trypsin (Gibco TrypLE Express), fixed with freshly made 4% buffered (pH 7.4) paraformaldehyde for 1 h at room temperature, washed several times with a large volume of ice-cold PBS, and blocked for 30 minutes at room temperature with 5% human serum albumin in PBS (intact, non-permeabilized cells). After establishing viability, the cell number was adjusted to 10^6 cells/ml and kept in ice-cold PBS until staining. Another set of the same cells was released with either EDTA or Trypsin and fixed with 4% buffered paraformaldehyde as above, then washed and blocked with 5% human serum albumin in PBS, and was treated separately with Triton X-100 (0.1% in PBS) (International Biotechnologies Inc. 07100) for 5 minutes at room temperature for membrane permeabilization. After washing off the Triton X-100 solution with PBS the cells were adjusted to 10^6 cells/ml and stored in ice-cold PBS. Cells (10^6/ml) from each preparation were then incubated either with 5 μg/ml of mAb to Na+/K+ ATPase ? -1 (Abeam, Cat. No. ab2826), 5 μg/ml of mAb NMC-103, or 5 μg/ml of mAb NMC-204 for 90 min at room temperature. Following primary antibody incubation, cells were washed 3 times with ice-cold PBS followed by incubation with rabbit anti-mouse PE-Cy5 labeled secondary antibody (PE-Cy5-RaM IgG (H&L); Invitrogen, Cat. No. M35018) at room temperature. Sixty minutes later the cells were washed 3 times with PBS and subjected to flow cytometry analysis (BD Canto Flow Cytometry). Controls to establish background fluorescence included the analysis of samples of unstained cells as well as cells that had been processed with secondary antibody under the same conditions as used in the experimental samples.
To further validate that the epitopes of the plasma membrane M(H)DM2 are in fact extracellularly accessible sequences on cancer cells, binding of mAbs NMC-103, NMC-204 and NMC-303 was performed on mouse Lewis Lung LL/2 cancer cells under treatment conditions of EDTA versus trypsin. Both of these conditions were also tested on intact versus permeabilized cells. FIG. 11 panels A, B and C present flow cytometry data on % cells stained with mAbs NMC-103, NMC-204 and anti-Na+/K+ ATPase ? -1, respectively. Each antibody was reacted with cells from four treatment conditions: EDTA-treated intact cells, EDTA-treated permeabilized cells, trypsin-treated intact cells, trypsin-treated permeabilized cells. […] However, when trypsin-treaded cells were permeabilized, the above reduction in binding was compensated by reactivity of the antibodies to intracellular MDM2 or Na+/K+ ATPase a-1.

[5] = EDTA-treated permeabilized cells (Triton X-100)

T1 sequence (Q00987 whole entry): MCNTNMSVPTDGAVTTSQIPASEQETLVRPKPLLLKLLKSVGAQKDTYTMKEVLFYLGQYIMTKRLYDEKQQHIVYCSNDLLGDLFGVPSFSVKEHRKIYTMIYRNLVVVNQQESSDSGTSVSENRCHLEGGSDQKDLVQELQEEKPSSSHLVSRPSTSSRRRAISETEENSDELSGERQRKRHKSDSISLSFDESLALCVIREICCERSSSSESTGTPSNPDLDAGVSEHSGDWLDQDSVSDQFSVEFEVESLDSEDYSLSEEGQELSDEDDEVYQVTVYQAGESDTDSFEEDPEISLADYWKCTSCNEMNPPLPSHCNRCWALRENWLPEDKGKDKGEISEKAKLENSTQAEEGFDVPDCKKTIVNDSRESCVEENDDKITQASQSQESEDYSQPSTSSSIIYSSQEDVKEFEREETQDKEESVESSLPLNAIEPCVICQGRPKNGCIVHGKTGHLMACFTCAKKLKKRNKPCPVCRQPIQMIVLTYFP

Molecule | reactivity with recombinant full-length HDM2-GST protein in immunoblot [1] | binding to intact normal human PBMCs, cell-ELISA [2] | growth inhibitory effect (FIG. 12D; number of living cells graphed as % of control) ([3]; antibody 1 μg/mL) | growth inhibitory effect (FIG. 12D; number of living cells graphed as % of control) ([3]; antibody 5 μg/mL) | growth inhibitory effect (FIG. 12D; number of living cells graphed as % of control) ([3]; antibody 10 μg/mL) | % cells stained (flow cytometry) ([4]; EDTA-treated intact cells) | % cells stained (flow cytometry) [4, 5] | % cells stained (flow cytometry) ([4]; trypsin-treated intact cells)
B1 | reacted | virtually no binding | 65% | 84% | 91% | 70.4% | 75.8% | 36.8%
B2 | reacted | did not react | 65% | 73% | 77% | 51.2% | 52.85% | 27%

— patent US11407840B2, “Antibodies to M(H)DM2/4 and their use in diagnosing and treating cancer” (NomoCan Pharmaceuticals LLC, priority 2017, dated 2022)
